Experimental data from IntAct's records for PubMed 29039417.

B1: BBSome complex member BBS5 (Homo sapiens), Q8N3I7 (parent)
chain: MSVLDALWEDRDVRFDLSAQQMKTRPGEVLIDCLDSIEDTKGNNGDRGRLLVTNLRILWHSLALSRVNVSVGYNCILNITTRTANSKLRGQTEALYILTKCNSTRFEFIFTNLVPGSPRLFTSVMAVHRAYETSKMYRDFKLRSALIQNKQLRLLPQEHVYDKINGVWNLSSDQGNLGTFFITNVRIVWHANMNDSFNVSIPYLQIRSIKIRDSKFGLALVIESSQQSGGYVLGFKIDPVEKLQESVKEINSLHKVYSASPIFGVDYEMEEKPQPLEALTVEQIQDDVEIDSDGHTDAFVAYFADGNKQQDREPVFSEELGLAIEKLKDGFTLQGLWEVMS
partner: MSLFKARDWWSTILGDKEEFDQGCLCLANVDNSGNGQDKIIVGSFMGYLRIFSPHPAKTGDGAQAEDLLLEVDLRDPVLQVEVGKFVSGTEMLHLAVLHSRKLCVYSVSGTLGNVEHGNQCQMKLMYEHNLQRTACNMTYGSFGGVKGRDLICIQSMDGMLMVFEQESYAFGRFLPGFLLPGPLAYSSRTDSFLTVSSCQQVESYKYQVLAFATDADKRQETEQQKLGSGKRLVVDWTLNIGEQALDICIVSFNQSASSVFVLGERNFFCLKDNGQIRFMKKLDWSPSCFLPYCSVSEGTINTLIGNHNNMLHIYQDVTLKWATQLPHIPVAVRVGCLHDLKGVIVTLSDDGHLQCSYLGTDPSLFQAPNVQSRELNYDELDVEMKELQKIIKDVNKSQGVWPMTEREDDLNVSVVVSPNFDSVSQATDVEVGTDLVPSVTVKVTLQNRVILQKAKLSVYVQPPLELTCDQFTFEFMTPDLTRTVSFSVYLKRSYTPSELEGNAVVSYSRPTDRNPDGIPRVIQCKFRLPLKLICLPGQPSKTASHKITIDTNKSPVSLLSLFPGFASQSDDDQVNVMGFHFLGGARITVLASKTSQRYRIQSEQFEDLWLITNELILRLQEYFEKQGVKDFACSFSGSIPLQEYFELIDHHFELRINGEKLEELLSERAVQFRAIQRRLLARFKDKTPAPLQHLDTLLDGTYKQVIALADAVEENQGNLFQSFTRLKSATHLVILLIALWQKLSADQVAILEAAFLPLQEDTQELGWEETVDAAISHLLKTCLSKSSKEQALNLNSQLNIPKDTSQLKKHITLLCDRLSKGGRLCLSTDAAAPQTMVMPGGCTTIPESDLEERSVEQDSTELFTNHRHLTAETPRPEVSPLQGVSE

Variants of: B1
Details: with pthb1_human BBS9, Q3SYG4

effect of a mutation on the interaction | Variant
with no effect | H254K
with no effect | H254A
with no effect | H254E
with no effect | D287K
with no effect | D287E
with no effect | D287A
with no effect | D305K
with no effect | D305A
with no effect | D305E
with no effect | V288K
with no effect | V288E
with no effect | V288A
with no effect | T296A
with no effect | T296E
with no effect | T296K
with no effect | F299K
with no effect | F299E
with no effect | F299A
disrupting interaction strength | V247I
with no effect | V247K
with no effect | V247E
with no effect | V247A
with no effect | D266E
with no effect | D266K

effect of a mutation on the interaction | Variant
with no effect | D266A
with no effect | M269E
with no effect | M269K
with no effect | M269A
with no effect | Q274E
with no effect | Q274K
with no effect | Q274A
with no effect | K308A
with no effect | Y267A
with no effect | Y267E
with no effect | Y267K
with no effect | Q244A
with no effect | Q244E
with no effect | Q244K
with no effect | G306K
with no effect | G306A
with no effect | G306E
with no effect | Q285E
with no effect | Q285K
disrupting interaction strength | Q285A
with no effect | E270A
with no effect | E270K
with no effect | D297A
with no effect | D297E

effect of a mutation on the interaction | Variant
with no effect | D297K
with no effect | K242A
with no effect | K242E
with no effect | P275K
with no effect | P275A
with no effect | P275E
with no effect | D293K
with no effect | D293A
with no effect | D293E
with no effect | D286K
with no effect | D286A
with no effect | D286E
with no effect | L276E
with no effect | L276A
with no effect | L276K
with no effect | N307E
with no effect | N307A
with no effect | N307K
with no effect | I250E
with no effect | I250A
with no effect | I250K
with no effect | K248A
with no effect | K248E
with no effect | L243A

effect of a mutation on the interaction | Variant
with no effect | L243E
with no effect | L243K
with no effect | S252E
with no effect | S252A
with no effect | S252K
with no effect | S260E
with no effect | S260K
with no effect | S260A
with no effect | E245A
with no effect | E245K
with no effect | S246E
with no effect | S246A
with no effect | S246K
with no effect | I284E
with no effect | I284A
with no effect | I284K
with no effect | D291E
with no effect | D291K
with no effect | D291A
with no effect | I262E
with no effect | I262K
with no effect | I262A
with no effect | E241A
with no effect | E241K

effect of a mutation on the interaction | Variant
with no effect | N251E
with no effect | N251A
with no effect | N251K
with no effect | E277A
with no effect | E277K
with no effect | K272A
with no effect | K272E
with no effect | A278E
with no effect | A278K
with no effect | V256E
with no effect | V256A
with no effect | V256K
with no effect | H295K
with no effect | H295E
with no effect | H295A
with no effect | S292E
with no effect | S292A
with no effect | S292K
with no effect | S258E
with no effect | S258K
with no effect | S258A
with no effect | I290E
with no effect | I290A
with no effect | I290K

effect of a mutation on the interaction | Variant
with no effect | A259E
with no effect | A259K
with no effect | V265K
with no effect | V265E
with no effect | V265A
with no effect | E282A
with no effect | E282K
with no effect | G264K
with no effect | G264E
with no effect | G264A
with no effect | P273E
with no effect | P273A
with no effect | P273K
with no effect | A304K
with no effect | A304E
with no effect | L279K
with no effect | L279A
with no effect | L279E
with no effect | G294K
with no effect | G294E
with no effect | G294A
with no effect | F303K
disrupting interaction strength | F303A
with no effect | F303E

effect of a mutation on the interaction | Variant
with no effect | L253K
with no effect | L253A
with no effect | L253E
with no effect | E289K
with no effect | E289A
with no effect | Q283K
with no effect | Q283E
with no effect | Q283A
disrupting interaction strength | Y257K
with no effect | Y257A
with no effect | Y257E
with no effect | E271K
with no effect | E271A
with no effect | V281K
with no effect | V281A
with no effect | V281E
with no effect | V300A
with no effect | V300E
with no effect | V300K
with no effect | E268A
with no effect | E268K
with no effect | Y302A
with no effect | Y302E
disrupting interaction strength | Y302K

effect of a mutation on the interaction | Variant
with no effect | K255A
with no effect | K255E
with no effect | E249K
with no effect | E249A
with no effect | P261K
with no effect | P261E
with no effect | P261A
with no effect | F263A
with no effect | F263K
with no effect | F263E
with no effect | T280A
with no effect | T280E
with no effect | T280K
with no effect | A298E
with no effect | A298K
with no effect | A301E
with no effect | A301K
